# Laboratory results taken from patent US20240309103A1 (Regeneron, published 2024).
# T1: mfNPR1-mFc (monkey)
# T1 construct: also called dimeric monkey NPR1
# T1 chain: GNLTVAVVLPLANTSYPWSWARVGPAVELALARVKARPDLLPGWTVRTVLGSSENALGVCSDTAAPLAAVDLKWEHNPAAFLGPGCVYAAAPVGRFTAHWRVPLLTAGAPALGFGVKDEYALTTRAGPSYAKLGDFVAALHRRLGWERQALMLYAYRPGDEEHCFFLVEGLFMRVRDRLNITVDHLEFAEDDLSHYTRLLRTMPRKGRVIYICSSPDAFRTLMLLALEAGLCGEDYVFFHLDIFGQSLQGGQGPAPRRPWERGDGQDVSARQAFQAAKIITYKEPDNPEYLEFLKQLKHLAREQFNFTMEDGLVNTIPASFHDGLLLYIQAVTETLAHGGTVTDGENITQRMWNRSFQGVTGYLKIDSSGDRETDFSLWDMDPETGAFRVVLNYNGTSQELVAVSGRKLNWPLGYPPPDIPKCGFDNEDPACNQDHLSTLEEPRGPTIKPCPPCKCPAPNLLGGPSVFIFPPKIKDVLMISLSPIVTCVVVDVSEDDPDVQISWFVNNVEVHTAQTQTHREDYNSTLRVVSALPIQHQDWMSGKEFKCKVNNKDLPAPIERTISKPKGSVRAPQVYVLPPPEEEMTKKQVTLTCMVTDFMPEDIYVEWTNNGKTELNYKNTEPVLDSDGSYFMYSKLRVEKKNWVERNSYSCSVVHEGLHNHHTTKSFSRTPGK
# B1: mAb25479 (antibody, human IgG4, V domains shown)
# VH: QVQLVQSGAEVKKPGASVKVSCKASGYTFTGYYIHWVRQAPGQGLEWMGWINPNSIGTNYAQKFQGRVTLTRDTSISTAYMELSSLRSDDTAVYYCARGGSSSYYYYYYGMDVWGQGTTVTVSS
# VL: DIQMTQSPSSLSASVGDRVTITCRASQSIDNYLNWYQQKPGKAPKLLIYVASSLQSGVPSRFSGSGSGTDFTLTISSLQPEDFATYYCQQSYSTPLTFGGGTKVEIK
# B2: mAb25491 (antibody, human IgG4, V domains shown)
# VH: QVQLVQSGAEVMKPGASVKVSCKASGYTFTGYYIHWVRQAPGQGLEWMGWITPNSGATNYAQKFQGRVTLTRDTSISTAYMELTRLKSDDTAVYYCARGGQLEFFYYYYGMDVWGQGTTVTVSS
# VL: DIQMTQSPSSLSASAGDRVTITCRASQSIDSYLNWYQQKPGKAPKLLISATSGFQSGVPSRFSGSGSGTDFTLTISSLQPEDFGTYYCQQSYTTPITFGQGTRLEIK
# Tests used:
# [1] = target: T2, hNPR1-mFc:hANP or hNPR1-hFc:hANP complex (human, UniProt P01160 124-151); experiment: SPR, mAb captured, 25C
# T2 construct: also called human NPR1 complexed to ANP
# Procedure: (§1) Equilibrium dissociation constant (KD) for different NPR1 reagents binding to purified anti-NPR1 monoclonal antibodies (mAbs) were determined using a real-time surface plasmon resonance based Biacore 4000 biosensor. All binding studies were performed in 10 mM HEPES, 150 mM NaCl, 3 mM EDTA, and 0.05% v/v Surfactant Tween-20, pH 7.4 (HBS-ET) running buffer at 25° C. and 37° C. The Biacore CM5 sensor chip surface was first derivatized by amine coupling with either mouse anti-human Fc specific mAb (GE Healthcare, #BR100839) or goat anti-human Fcy specific polyclonal antibody (Jackson ImmunoResearch Laboratories, #BR-1008-39) to capture anti-NPR1 mAbs.
# hNPR1-mFc:hBNP complex [2] = target: T3, hNPR1-mFc:hBNP complex (human, UniProt P16860 103-134); experiment: SPR, mAb captured, 25C
# T3 construct: also called human NPR1 complexed to BNP
# Procedure: as §1
# mfNPR1-mFc [3] = target: T1, mfNPR1-mFc; experiment: SPR, mAb captured, 25C
# Procedure: as §1
# mfNPR1-mFc:hANP complex [4] = target: T4, mfNPR1-mFc:hANP complex (monkey; human, UniProt P01160 124-151); experiment: SPR, mAb captured, 25C
# T4 construct: also called monkey NPR1 complexed to ANP
# Procedure: as §1
# mfNPR1-mFc:hBNP complex = target: T5, mfNPR1-mFc:hBNP complex (monkey; human, UniProt P16860 103-134); experiment: SPR, mAb captured, 25C
# T5 construct: also called monkey NPR1 complexed to BNP
# Procedure: as §1
# [5] = target: T2, hNPR1-mFc:hANP or hNPR1-hFc:hANP complex; experiment: SPR, mAb captured, 37C
# Procedure: as §1
# hNPR1-mFc:hBNP complex [6] = target: T3, hNPR1-mFc:hBNP complex; experiment: SPR, mAb captured, 37C
# Procedure: as §1
# mfNPR1-mFc [7] = target: T1, mfNPR1-mFc; experiment: SPR, mAb captured, 37C
# Procedure: as §1
# mfNPR1-mFc:hANP complex [8] = target: T4, mfNPR1-mFc:hANP complex; experiment: SPR, mAb captured, 37C
# Procedure: as §1
binder,measurement,setting,value
B1,100 nM Ag Bound (RU),[1],49 RU
same,Kd,[1],3.53 nM
same,koff,[1],0.000109 s⁻¹
same,kon,[1],31000 M⁻¹ s⁻¹
same,t½,[1],1.76 h
same,100 nM Ag Bound (RU),hNPR1-mFc:hBNP complex [2],50 RU
same,Kd,hNPR1-mFc:hBNP complex [2],4.21 nM
same,koff,hNPR1-mFc:hBNP complex [2],0.000123 s⁻¹
same,kon,hNPR1-mFc:hBNP complex [2],29200 M⁻¹ s⁻¹
same,t½,hNPR1-mFc:hBNP complex [2],1.57 h
same,100 nM Ag Bound (RU),mfNPR1-mFc [3],54 RU
same,Kd,mfNPR1-mFc [3],16.2 nM
same,koff,mfNPR1-mFc [3],0.000507 s⁻¹
same,kon,mfNPR1-mFc [3],31200 M⁻¹ s⁻¹
same,t½,mfNPR1-mFc [3],0.38 h
same,100 nM Ag Bound (RU),mfNPR1-mFc:hANP complex [4],86 RU
same,Kd,mfNPR1-mFc:hANP complex [4],2.44 nM
same,koff,mfNPR1-mFc:hANP complex [4],0.000103 s⁻¹
same,kon,mfNPR1-mFc:hANP complex [4],42000 M⁻¹ s⁻¹
same,t½,mfNPR1-mFc:hANP complex [4],1.88 h
same,100 nM Ag Bound (RU),mfNPR1-mFc:hBNP complex,86 RU
same,Kd,mfNPR1-mFc:hBNP complex,2.95 nM
same,koff,mfNPR1-mFc:hBNP complex,0.000113 s⁻¹
same,kon,mfNPR1-mFc:hBNP complex,38100 M⁻¹ s⁻¹
same,t½,mfNPR1-mFc:hBNP complex,1.71 h
same,100 nM Ag Bound (RU),[5],84 RU
same,Kd,[5],2.7 nM
same,koff,[5],0.000134 s⁻¹
same,kon,[5],49700 M⁻¹ s⁻¹
same,t½,[5],1.43 h
same,100 nM Ag Bound (RU),hNPR1-mFc:hBNP complex [6],85 RU
same,Kd,hNPR1-mFc:hBNP complex [6],3.83 nM
same,koff,hNPR1-mFc:hBNP complex [6],0.000163 s⁻¹
same,kon,hNPR1-mFc:hBNP complex [6],42700 M⁻¹ s⁻¹
same,t½,hNPR1-mFc:hBNP complex [6],1.18 h
same,100 nM Ag Bound (RU),mfNPR1-mFc [7],89 RU
same,Kd,mfNPR1-mFc [7],28.1 nM
same,koff,mfNPR1-mFc [7],0.00108 s⁻¹
same,kon,mfNPR1-mFc [7],38200 M⁻¹ s⁻¹
same,t½,mfNPR1-mFc [7],0.178 h
same,100 nM Ag Bound (RU),mfNPR1-mFc:hANP complex [8],138 RU
same,Kd,mfNPR1-mFc:hANP complex [8],4 nM
same,koff,mfNPR1-mFc:hANP complex [8],0.000219 s⁻¹
same,kon,mfNPR1-mFc:hANP complex [8],54700 M⁻¹ s⁻¹
same,t½,mfNPR1-mFc:hANP complex [8],0.88 h
B2,100 nM Ag Bound (RU),[1],71 RU
same,Kd,[1],0.794 nM
same,koff,[1],4.15e-05 s⁻¹
same,kon,[1],52200 M⁻¹ s⁻¹
same,t½,[1],4.64 h
same,100 nM Ag Bound (RU),hNPR1-mFc:hBNP complex [2],72 RU
same,Kd,hNPR1-mFc:hBNP complex [2],0.908 nM
same,koff,hNPR1-mFc:hBNP complex [2],4.96e-05 s⁻¹
same,kon,hNPR1-mFc:hBNP complex [2],54600 M⁻¹ s⁻¹
same,t½,hNPR1-mFc:hBNP complex [2],3.88 h
same,100 nM Ag Bound (RU),mfNPR1-mFc [3],81 RU
same,Kd,mfNPR1-mFc [3],1.4 nM
same,koff,mfNPR1-mFc [3],7.54e-05 s⁻¹
same,kon,mfNPR1-mFc [3],54000 M⁻¹ s⁻¹
same,t½,mfNPR1-mFc [3],2.55 h
same,100 nM Ag Bound (RU),mfNPR1-mFc:hANP complex [4],111 RU
same,Kd,mfNPR1-mFc:hANP complex [4],0.757 nM
same,koff,mfNPR1-mFc:hANP complex [4],4.55e-05 s⁻¹
same,kon,mfNPR1-mFc:hANP complex [4],60100 M⁻¹ s⁻¹
same,t½,mfNPR1-mFc:hANP complex [4],4.23 h
same,100 nM Ag Bound (RU),mfNPR1-mFc:hBNP complex,110 RU
same,Kd,mfNPR1-mFc:hBNP complex,0.632 nM
same,koff,mfNPR1-mFc:hBNP complex,3.71e-05 s⁻¹
same,kon,mfNPR1-mFc:hBNP complex,58600 M⁻¹ s⁻¹
same,t½,mfNPR1-mFc:hBNP complex,5.19 h
same,100 nM Ag Bound (RU),[5],96 RU
same,Kd,[5],1.95 nM
same,koff,[5],0.000111 s⁻¹
same,kon,[5],56900 M⁻¹ s⁻¹
same,t½,[5],1.73 h
same,100 nM Ag Bound (RU),hNPR1-mFc:hBNP complex [6],96 RU
same,Kd,hNPR1-mFc:hBNP complex [6],2.45 nM
same,koff,hNPR1-mFc:hBNP complex [6],0.000134 s⁻¹
same,kon,hNPR1-mFc:hBNP complex [6],54700 M⁻¹ s⁻¹
same,t½,hNPR1-mFc:hBNP complex [6],1.44 h
same,100 nM Ag Bound (RU),mfNPR1-mFc [7],114 RU
same,Kd,mfNPR1-mFc [7],3.49 nM
same,koff,mfNPR1-mFc [7],0.000164 s⁻¹
same,kon,mfNPR1-mFc [7],47000 M⁻¹ s⁻¹
same,t½,mfNPR1-mFc [7],1.17 h
same,100 nM Ag Bound (RU),mfNPR1-mFc:hANP complex [8],148 RU
same,Kd,mfNPR1-mFc:hANP complex [8],1.49 nM
same,koff,mfNPR1-mFc:hANP complex [8],0.000106 s⁻¹
same,kon,mfNPR1-mFc:hANP complex [8],71000 M⁻¹ s⁻¹
same,t½,mfNPR1-mFc:hANP complex [8],1.82 h
